T1: human IL-2 receptor IL-2Rα/IL-2Rβ/γc on HEK-Blue IL-2 cells (UniProt P01589 22-272; P14784 27-551; P31785 23-369)
T1 chain 1: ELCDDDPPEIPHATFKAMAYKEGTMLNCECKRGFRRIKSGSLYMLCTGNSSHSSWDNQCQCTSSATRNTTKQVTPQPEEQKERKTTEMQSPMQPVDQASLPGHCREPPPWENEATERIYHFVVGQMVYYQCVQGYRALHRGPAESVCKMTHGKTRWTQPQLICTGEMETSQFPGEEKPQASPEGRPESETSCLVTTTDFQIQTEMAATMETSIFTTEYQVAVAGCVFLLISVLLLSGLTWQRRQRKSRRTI
T1 chain 2: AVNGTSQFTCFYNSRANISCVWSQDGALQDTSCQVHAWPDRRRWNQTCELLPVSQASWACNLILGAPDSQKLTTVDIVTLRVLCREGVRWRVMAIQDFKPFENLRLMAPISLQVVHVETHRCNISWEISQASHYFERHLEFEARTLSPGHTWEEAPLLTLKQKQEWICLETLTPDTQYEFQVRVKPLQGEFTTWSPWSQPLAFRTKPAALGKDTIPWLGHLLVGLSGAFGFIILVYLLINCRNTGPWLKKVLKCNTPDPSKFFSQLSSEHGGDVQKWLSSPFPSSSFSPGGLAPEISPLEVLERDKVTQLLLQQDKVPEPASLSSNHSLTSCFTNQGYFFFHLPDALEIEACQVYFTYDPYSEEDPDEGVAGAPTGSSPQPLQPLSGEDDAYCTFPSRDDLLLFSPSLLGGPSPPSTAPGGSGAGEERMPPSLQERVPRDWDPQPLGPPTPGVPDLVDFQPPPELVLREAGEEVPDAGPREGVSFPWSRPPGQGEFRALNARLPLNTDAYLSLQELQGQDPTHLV
T1 chain 3: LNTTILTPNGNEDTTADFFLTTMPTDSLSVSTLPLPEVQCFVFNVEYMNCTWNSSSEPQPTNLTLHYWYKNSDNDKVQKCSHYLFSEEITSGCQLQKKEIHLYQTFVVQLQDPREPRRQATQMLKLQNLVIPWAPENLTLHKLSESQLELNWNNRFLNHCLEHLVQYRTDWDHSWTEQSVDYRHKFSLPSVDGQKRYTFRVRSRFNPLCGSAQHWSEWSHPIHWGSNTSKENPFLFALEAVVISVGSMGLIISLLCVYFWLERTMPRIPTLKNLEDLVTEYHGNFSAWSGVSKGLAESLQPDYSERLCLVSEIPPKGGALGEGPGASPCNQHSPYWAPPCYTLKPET

B1: BsVHH-6 (27x18) (antibody)
chain: QVQLVESGGGLVQAGGSLTLSCAAPGRTFGTDVVGWFRQAPGKEREFVASISRSGDGIYYDDSVKGRFTISRNNAWNTVNLQMNSLKVEDTAVYYCAAGDGWSTYDYWGQGTQVTVSSGGGGSGGGGSGGGGSGSQVQLVESGGGLVQPGGSLRLSCAISGGTLDSYGIGWVRQAPGKQREGVSCMSRSDDRTYYADSVKGRFTISKDSAKNTVYLQMTSLKPEDTAVYYCAAVDAYGCSLVQPTTYDFWGLGTQVTVSSGGGGSGGGGSGGGGSTVSSDKTHTCPPCPAPEAAGGPSVFLFPPKPKDTLMISRTPEVTCVVVDVSHEDPEVKFNWYVDGVEVHNAKTKPREEQYNSTYRVVSVLTVLHQDWLNGKEYKCKVSNKALGAPIEKTISKAKGQPREPQVYTLPPSRDELTKNQVSLTCLVKGFYPSDIAVEWESNGQPENNYKTTPPVLDSDGSFLLYSKLTVDKSRWQQGNVFSCSVMHEALHNHYTQKSLSLSPGK
B2: BsVHH-13 (32x19) (antibody)
chain: QVQLVESGGGLVQAGGSLRLSCAASGRTFGSTAVGWFRQVPGKEREFVSAINRSGSATTYADSVKGRFTISRDNAKNTVYLQMNSLTPEDTGVYYCAADSLPYGRPYYFQRSAGEYDYWGQGTQVTVSSGGGGSGGGGSGGGGSGSEVQLVESGGGLVQTGGSLRLSCAASGGTFSRDAMAWFRQVPGKEREFVALISWSGATTNYADSVKGRFAISRDNGKNTVYLQMNRLKPADTAIYYCAADRRPMGSRSYFEPTEYDDWGQGTQVTVSSGGGGSGGGGSGGGGSTVSSDKTHTCPPCPAPEAAGGPSVFLFPPKPKDTLMISRTPEVTCVVVDVSHEDPEVKFNWYVDGVEVHNAKTKPREEQYNSTYRVVSVLTVLHQDWLNGKEYKCKVSNKALGAPIEKTISKAKGQPREPQVYTLPPSRDELTKNQVSLTCLVKGFYPSDIAVEWESNGQPENNYKTTPPVLDSDGSFLLYSKLTVDKSRWQQGNVFSCSVMHEALHNHYTQKSLSLSPGK
B3: BsVHH-10 (36x18) (antibody)
chain: QVQLVESGGGLVQAGGSLRLSCAASGRTLSRYAMGWFRQAPGSEREFVAASSWGGDTFYADSVEGRFTFSRDNAKNAVYLQMNSLQPEDTAAYYCAAAPTSFPTTAYSSSNSYAYWGQGTQVTVSSGGGGSGGGGSGGGGSGSQVQLVESGGGLVQPGGSLRLSCAISGGTLDSYGIGWVRQAPGKQREGVSCMSRSDDRTYYADSVKGRFTISKDSAKNTVYLQMTSLKPEDTAVYYCAAVDAYGCSLVQPTTYDFWGLGTQVTVSSGGGGSGGGGSGGGGSTVSSDKTHTCPPCPAPEAAGGPSVFLFPPKPKDTLMISRTPEVTCVVVDVSHEDPEVKFNWYVDGVEVHNAKTKPREEQYNSTYRVVSVLTVLHQDWLNGKEYKCKVSNKALGAPIEKTISKAKGQPREPQVYTLPPSRDELTKNQVSLTCLVKGFYPSDIAVEWESNGQPENNYKTTPPVLDSDGSFLLYSKLTVDKSRWQQGNVFSCSVMHEALHNHYTQKSLSLSPGK
B4: BsVHH-16 (27x22) (antibody)
chain: QVQLVESGGGLVQAGGSLTLSCAAPGRTFGTDVVGWFRQAPGKEREFVASISRSGDGIYYDDSVKGRFTISRNNAWNTVNLQMNSLKVEDTAVYYCAAGDGWSTYDYWGQGTQVTVSSGGGGSGGGGSGGGGSGSEVQLVESGGGLVQAGGSLRLSCAASGSIFSINAMAWFRQVPGMERELVAAISRDGGASVYRDSVKGRFTISRDNSKNTVYLQMNTLKPEDTAIYVCAATRAIGWTARWITTDFDFWGQGTQVTVSSGGGGSGGGGSGGGGSTVSSDKTHTCPPCPAPEAAGGPSVFLFPPKPKDTLMISRTPEVTCVVVDVSHEDPEVKFNWYVDGVEVHNAKTKPREEQYNSTYRVVSVLTVLHQDWLNGKEYKCKVSNKALGAPIEKTISKAKGQPREPQVYTLPPSRDELTKNQVSLTCLVKGFYPSDIAVEWESNGQPENNYKTTPPVLDSDGSFLLYSKLTVDKSRWQQGNVFSCSVMHEALHNHYTQKSLSLSPGK
B5: BsVHH-11 (27x19) (antibody)
chain: QVQLVESGGGLVQAGGSLTLSCAAPGRTFGTDVVGWFRQAPGKEREFVASISRSGDGIYYDDSVKGRFTISRNNAWNTVNLQMNSLKVEDTAVYYCAAGDGWSTYDYWGQGTQVTVSSGGGGSGGGGSGGGGSGSEVQLVESGGGLVQTGGSLRLSCAASGGTFSRDAMAWFRQVPGKEREFVALISWSGATTNYADSVKGRFAISRDNGKNTVYLQMNRLKPADTAIYYCAADRRPMGSRSYFEPTEYDDWGQGTQVTVSSGGGGSGGGGSGGGGSTVSSDKTHTCPPCPAPEAAGGPSVFLFPPKPKDTLMISRTPEVTCVVVDVSHEDPEVKFNWYVDGVEVHNAKTKPREEQYNSTYRVVSVLTVLHQDWLNGKEYKCKVSNKALGAPIEKTISKAKGQPREPQVYTLPPSRDELTKNQVSLTCLVKGFYPSDIAVEWESNGQPENNYKTTPPVLDSDGSFLLYSKLTVDKSRWQQGNVFSCSVMHEALHNHYTQKSLSLSPGK
B6: BsVHH-4 (35x16) (antibody)
chain: QVQLQESGGGLVQGGGSLRLSCAASGGIFSSYAMGWFRQAPGKEREFVAAISRSGRSTNYADSVKGRFTISRDNAKSTVYLQMNSLKPEETAVYYCAAGRYYNSAYDPSPGDFGSWGHGTQVTVSSGGGGSGGGGSGGGGSGSEVQLVESGGGLVQAGGSLRLSCAASGRAIENYPVGWFRQAPGKEREFVAAITWISGSTLYADSVKGRFTISRDNAKNTVYLQMSSLKPEDTALYYCAAALKTITRGQNDYSYWGQGTQVTVSSGGGGSGGGGSGGGGSTVSSDKTHTCPPCPAPEAAGGPSVFLFPPKPKDTLMISRTPEVTCVVVDVSHEDPEVKFNWYVDGVEVHNAKTKPREEQYNSTYRVVSVLTVLHQDWLNGKEYKCKVSNKALGAPIEKTISKAKGQPREPQVYTLPPSRDELTKNQVSLTCLVKGFYPSDIAVEWESNGQPENNYKTTPPVLDSDGSFLLYSKLTVDKSRWQQGNVFSCSVMHEALHNHYTQKSLSLSPGK
B7: BsVHH-5 (36x16) (antibody)
chain: QVQLVESGGGLVQAGGSLRLSCAASGRTLSRYAMGWFRQAPGSEREFVAASSWGGDTFYADSVEGRFTFSRDNAKNAVYLQMNSLQPEDTAAYYCAAAPTSFPTTAYSSSNSYAYWGQGTQVTVSSGGGGSGGGGSGGGGSGSEVQLVESGGGLVQAGGSLRLSCAASGRAIENYPVGWFRQAPGKEREFVAAITWISGSTLYADSVKGRFTISRDNAKNTVYLQMSSLKPEDTALYYCAAALKTITRGQNDYSYWGQGTQVTVSSGGGGSGGGGSGGGGSTVSSDKTHTCPPCPAPEAAGGPSVFLFPPKPKDTLMISRTPEVTCVVVDVSHEDPEVKFNWYVDGVEVHNAKTKPREEQYNSTYRVVSVLTVLHQDWLNGKEYKCKVSNKALGAPIEKTISKAKGQPREPQVYTLPPSRDELTKNQVSLTCLVKGFYPSDIAVEWESNGQPENNYKTTPPVLDSDGSFLLYSKLTVDKSRWQQGNVFSCSVMHEALHNHYTQKSLSLSPGK
B8: BsVHH-3 (32x16) (antibody)
chain: QVQLVESGGGLVQAGGSLRLSCAASGRTFGSTAVGWFRQVPGKEREFVSAINRSGSATTYADSVKGRFTISRDNAKNTVYLQMNSLTPEDTGVYYCAADSLPYGRPYYFQRSAGEYDYWGQGTQVTVSSGGGGSGGGGSGGGGSGSEVQLVESGGGLVQAGGSLRLSCAASGRAIENYPVGWFRQAPGKEREFVAAITWISGSTLYADSVKGRFTISRDNAKNTVYLQMSSLKPEDTALYYCAAALKTITRGQNDYSYWGQGTQVTVSSGGGGSGGGGSGGGGSTVSSDKTHTCPPCPAPEAAGGPSVFLFPPKPKDTLMISRTPEVTCVVVDVSHEDPEVKFNWYVDGVEVHNAKTKPREEQYNSTYRVVSVLTVLHQDWLNGKEYKCKVSNKALGAPIEKTISKAKGQPREPQVYTLPPSRDELTKNQVSLTCLVKGFYPSDIAVEWESNGQPENNYKTTPPVLDSDGSFLLYSKLTVDKSRWQQGNVFSCSVMHEALHNHYTQKSLSLSPGK

Biological target: T1, human IL-2 receptor IL-2Rα/IL-2Rβ/γc on …
Test: FACS cell binding; avid

Row | EC50 | Binder
1 | 172 nM | B1
2 | 41.8 nM | B2
3 | 4.2 nM | B3
4 | 659 nM | B4
5 | 38.1 nM | B5
6 | 3.5 nM | B6
7 | 121 nM | B7
8 | 3.7 nM | B8

From patent publication US20240409645A1 (published 2024)
